Key:
[1] = tested on: Akt; assay: Akt-dependent phosphorylation of PDNF in Schwann cells (immunoprecipitation with TCN-2, Western blotting); assay type: cell-based, human
Method: To provide further evidence that the phosphorylation of PDNF depended on host […], T. cruzi-infected Schwann cells were treated with LY294002, a pharmacological inhibitor of PI3K, which phosphorylates and activates Akt (10), and with Akti VIII, a specific allosteric inhibitor of Akt that prevents the phosphorylation of Akt at Ser^473 and Thr^308, which is critical for the activation of Akt (25). Lysates of treated cells were assayed for phosphorylated Akt (pAkt) and, after immunoprecipitation with a PDNF-specific antibody, for the presence of Akt-phosphorylated substrates. […] The conclusion that PDNF was a substrate of Akt was further reinforced by in vitro kinase assays.
(§1) Cell monolayers were lysed with lysis buffer (20 mM tris-HCl (pH 7.5), 150 mM NaCl, 1 mM EDTA, 1% Triton X-100, 2.5 mM sodium pyrophosphate, 1 mM glycerophosphate, 1 mM Na3VO4, 1 μg/mL leupeptin and 1 mM phenylmethylsulfonyl fluoride (PMSF)) on ice for 10 min, cleared by centrifugation (12,000×g for 10 min at 4° C.) and immunoprecipitated with an antibody specific for Akt-phosphorylated substrate or with TCN-2 at 4° C. overnight Immunoprecipitates were collected with protein G-Sepharose for 2 hours at 4° C., washed with lysis buffer, and resuspended in SDS-sample buffer for SDS-PAGE and Western blotting analysis. In other experiments, total cell lysates (30 to 50 μg of protein) were resolved by SDS-PAGE, transferred to nitrocellulose membranes, and incubated with the relevant primary antibodies, followed by incubation with HRP-conjugated secondary antibody and visualization by ECL.

[2] = tested on: Schwann cells; assay: TNF-α and TGF-β induced apoptosis, TUNEL assay; assay type: cell-based, human; details: TNF-α 20 ng/ml and TGF-β 40 ng/ml
Method: (§2) Infected Schwann cells, Sc-Red cells, and Sc-PDNF cells were treated for 24 hours with 100 to 500 μM H2O2 with or without pretreatment with the Akt inhibitor Akti VIII (10 μM), fixed, and visualized by fluorescence microscopy after staining with DAPI and TUNEL reagents with the In Situ Cell Death Detection kit (Roche). Cell survival was measured by MTT-based CellTiter kit (Promega). Alternatively, Sc-Red and Sc-PDNF cells were grown for 4 days in DMEM, 1% bovine serum albumin (BSA) with or without TNF-α (20 ng/ml) and TGF-β1 (40 ng/ml) and with or without Akti VIII (10 μM).

[3] = tested on: Schwann cells; assay type: cell-based, human; details: 100 μM H2O2, 24 hours
Method: (§3) Immortalized human Schwann cells (54) were maintained in DMEM supplemented with 10% FCS and penicillin/streptomycin at 37° C. in 5% CO2. Infections were performed with T. cruzi trypomastigotes (Silvio strain) at 2×10^5 parasites/ml or at a parasite:cell ratio of 50:1. After 2 or 3 hours, monolayers were washed to remove unattached parasites and cells were then maintained in medium containing 2% FCS for 3 to 5 days to complete the intracellular infection cycle.
as §2

[4] = tested on: Schwann cells; assay: H2O2-induced apoptosis, TUNEL assay; assay type: cell-based, human
Method: as §2

[5] = tested on: bacterially-expressed PDNF (recombinant full-length PDNF, clone 19Y, expressed in E. coli)
[6] = target: Akt kinase, endogenous protein of immortalized human Schwann cells (human) (UniProt P31749); assay: cell-based or functional assay
[7] = tested on: caspase-9; assay: cDNA microarray, Sc-PDNF vs Sc-Red cells: caspase-9 mRNA; assay type: cell-based, human; details: PDNF-expressing Schwann cells vs control cells
Method: (§4) These analyses were performed as described previously (55, 56). The concentration and quality of total RNA isolated from Sc-Red cells and Sc-PDNF cells were estimated by spectrophotometry (A260 nm/A280 nm of 1.9 to 2.1) and by agarose gel electrophoresis. Hybridization and data analysis were performed by the Tufts Expression Array Core with cDNAs prepared from Sc-Red cells and Sc-PDNF cells labeled with aminoallyl (aa)-dUTP Cy3 or Cy5 dyes, respectively. The two differently dye-labeled cDNAs were hybridized with the same microarray slide containing 48,500 human genes (Microarrays Inc) for 16 hours. After washing, the slide was scanned at 550 nm and 649 nm for Cy-3 and Cy-5 dyes, respectively, in a ScanArray 4000 scanner (PerkinElmer). Images were overlaid and analyzed with QuantArray spot quantification software (Packard BioChip Technologies). The ratio of both fluorescence intensities for each spot reflected the ratio of each gene expressed in the control and treatment samples. […] For each gene, ratios of red (Cy-5) over green (Cy-3) intensities (I) were calculated and normalized through a Lowess Fit of the log2 ratios (log2(Icy-5/Icy-3)) over the log2 of the total intensity (log2(Icy-5. Icy-3)). Mean ratios were calculated from the duplicate spots, and only values with a covariance (CV) b0.5 were further taken into account. […]

[8] = tested on: Akt2; assay: Real-time PCR, Sc-PDNF vs Sc-Red cells: Akt2; assay type: cell-based, human; details: PDNF-expressing cells vs control cells, p<0.05
Method: (§5) These assays were performed as described previously (57, 58). In brief, RNA was isolated with the Trizol reagent and chloroform, cDNA was synthesized from 500 ng of total RNA with Superscript III reverse transcriptase primed with random hexamers, and quantitative PCR reactions were performed with QuantiTect SYBR Green PCR kit (Qiagen) on an Applied Biosystems 7300 Real-Time PCR system. Conditions for the PCR reactions were: 95° C. for 15 min, followed by 50 cycles at 94° C. for 15 s, 54° C. for 30 s, and 72° C. for 45 s, concluding with a dissociation stage to measure amplification product specificity. Primers used to calculate Akt expression were synthesized as described previously (57). Experiments were performed in triplicate, and fold differences were calculated by the 2^−ΔΔCt method (ΔΔCt=(Cttarget gene−Ctb-actin)treated−(Cttarget gene−Ctb-actin)untreated) as described previously (58).

[9] = tested on: Akt3; assay: cDNA microarray, Sc-PDNF vs Sc-Red cells: Akt3 mRNA; assay type: cell-based, human; details: Schwann cells expressing PDNF vs control cells
Method: as §4

[10] = tested on: other protein kinases; assay: cDNA microarray, Sc-PDNF vs Sc-Red cells: other protein kinase mRNAs; assay type: cell-based, human; details: Schwann cells expressing PDNF vs control cells
Method: as §4

[11] = tested on: Akt3; assay: Real-time PCR, Sc-PDNF vs Sc-Red cells: Akt3; assay type: cell-based, human; details: PDNF-transfected Schwann cells vs control cells
Method: as §5

[12] = tested on: mitochondrial protein BAX; assay: cDNA microarray, Sc-PDNF vs Sc-Red cells: BAX mRNA; assay type: cell-based, human; details: PDNF-expressing Schwann cells vs control cells
Method: as §4

[13] = tested on: Akt; assay: Western blotting of pAkt (activation of Akt) in Schwann cells; assay type: cell-based, human; details: Schwann cell-expressed PDNF compared to control transfected cells
Method: as §3
The coding region of the gene encoding PDNF (formerly T. cruzi neuraminidase, or TCNA) was amplified from the TS19y clone (20) with the primers TCNA-F: 5′-[…]-3′ (SEQ ID NO: 11) and TCNA-R: 5′-[…] (SEQ ID NO: 12) (restriction sites for XhoI and SacII are underlined) and inserted into the pIRES2-DsRed-Express vector (Clontech). Selected recombinant plasmids were purified with the Qiagen kit, sequenced at Tufts University Core facility, and used for transfections. Cells were plated at 1×10^5 cells/ml in 100-mm plates 20 hours before their transfection with 10 μg of total DNA per plate with the FuGENE HD transfection reagent (Roche Diagnostics) as recommended by the manufacturer. Transfected cells were selected with G418 (1 mg/ml) and analyzed for the presence of PDNF by Western blotting and trans-sialidase activity assays (26). […]

[14] = tested on: Akt; assay: Coimmunoprecipitation of PDNF and Akt; assay type: binding; details: lysates of T. cruzi-infected human Schwann cells, 4 days; IP with mAb TCN-2
Method: We infected Schwann cells with T. cruzi for 2 hours, removed parasites from the medium overlay by washing, and cultured the cells for 4 days to allow intracellular parasites to differentiate, grow, and multiply. Lysates of uninfected and infected Schwann cells were immunoprecipitated with the monoclonal antibody (mAb) TCN-2, which is specific for the C-terminal tandem repeat unit of PDNF (FIG. 1A) (23), and Western blots of these immunoprecipitates were incubated with PDNF— and Akt-specific antibodies.
as §1

[15] = tested on: transcription factor FOXO; assay: cDNA microarray, Sc-PDNF vs Sc-Red cells: FOXO mRNA; assay type: cell-based, human; details: PDNF-expressing Schwann cells vs control cells
Method: as §4

[16] = T. cruzi-infected Schwann cells treated with inhibitor for 24 hours

O=c1[nH]c2ccccc2n1C1CCN(Cc2ccc(-c3nc4cc5[nH]cnc5cc4nc3-c3ccccc3)cc2)CC1 [Akti VIII]
extent of the phosphorylation of PDNF ([1]; Schwann cells transfected with plasmid encoding PDNF, inhibitor for 24 hours): substantially decreased | abundance of activated Akt (pAkt) [1, 16]: reduction in abundance of activated Akt | abundance of unphosphorylated PDNF [1, 16]: did not affect | phosphorylation of PDNF [1, 16]: inhibition of the phosphorylation of PDNF | effect of Akt inhibitor on anti-apoptotic effect of intracellular PDNF ([2]; Akti VIII 10 μM): abolished | effect of Akt inhibitor on survival-promoting activity of PDNF ([3]; Sc-PDNF cells pretreated with Akti VIII 10 μM): abrogated | effect of Akt inhibitor on resistance of infected cells to oxidative stress ([3]; T. cruzi-infected Schwann cells pretreated with Akti VIII 10 μM): lost

OO [H2O2, hydrogen peroxide]
cell survival of uninfected Schwann cells [3]: only half of the cells survived | apoptosis induced in uninfected Schwann cells ([4]; 100 μM H2O2, 6 hours): ~25% | uninfected cells with apoptosis-related DNA damage ([4]; 500 μM H2O2, 24 hours): ~90%

Akt kinase, endogenous protein of immortalized human Schwann cells
in vitro kinase assay: phosphorylation of bPDNF by immuno-purified Akt, Western blot with antibody against Akt-phosphorylated substrates [5]: generated phosphorylated PDNF in vitro in a dose-dependent and ATP-dependent manner

PDNF expressed in the cytosol of human Schwann cells transfected with pIRES2-DsRed-Express carrying
apoptosis (TUNEL assay) of Sc-PDNF cells in TNF-α (20 ng/ml) and TGF-β (40 ng/ml) [6]: 2.5 % of cells

PDNF expressed in the cytosol of human Schwann cells transfected with pIRES2-DsRed-Express carrying (enzyme)
abundance of pAkt (Ser^473), Western blot with scanning densitometry, Sc-PDNF against control transfected cells [6]: 5 fold | abundance of pAkt (Thr^308), Western blot with scanning densitometry, Sc-PDNF against control transfected cells [6]: 6 fold

B1: PDNF: Trypanosoma cruzi membrane-bound neuraminidase/trans-sialidase; clone 19Y expressed in Schwann cell cytosol from pIRES2-DsRed-Express plasmid (protein, listed as Trypanosoma cruzi)
chain: MGKTVVVASRMFWLMFFVPLLLAICPSEPAYALAPGSSRVELFKRKNSTVPFEDKAGKVTERVVHSFRLPALVNVDGVMVAIADARYDTSNDNSLIDTVAKYSVDDGETWETQIAIKNSRVSSVSRVVDPTVIVKGNKLYVLVGSYYSSRSYWSSHGDARDWDILLAVGEVTKSTAGGKITASIKWGSPVSLKKFFPAEMEGMHTNQFLGGAGVAIVASNGNLVYPVQVTNKKKQVFSKIFYSEDDGKTWKFGKGRSDFGCSEPVALEWEGKLIINTRVDWKRRLVYESSDMEKPWVEAVGTVSRVWGPSPKSNQPGSQSSFTAVTIEGMRVMLFTHPLNFKGRWLRDRLNLWLTDNQRIYNVGQVSIGDENSAYSSVLYKDDKLYCLHEINTDEVYSLVFARLVGELRIIKSVLRSWKNWDSHLSSICTPADPAASSSESGCGPAVTTVGLVGFLSGNASQNVWEDAYRCVNASTANAERVRNGLKFAGVGGGALWPVSQQGQNQRYRFANHAFTLVASVTIHEAPRAASPLLGASLDSSGGKKLLGLSYDEKHQWQPIYGSTPVTPTGSWETGKRYHLVLTMANKIGSVYIDGELLEGSGQTVVPDGRTPDISHFYVGGYKRSDMPTISHVTVNNVLLYNRQLNTEEIRTLFLSQDLIGTEAHM
caspase-9 mRNA reduced in abundance [7]: ~5.0 fold | increase in the mRNA for Akt2 [8]: ~5.0 fold | Akt3 mRNA more abundant [9]: ~3 fold | abundance of the mRNAs for other protein kinases [10]: unaltered | increased expression of the gene encoding Akt3 [11]: 3 fold | BAX mRNA reduced in abundance [12]: ~2.6 fold | cells that underwent apoptosis (TUNEL-positive) ([2]; PDNF in Schwann cell cytosol, 4 days): 2.5%±0.7 | protection from H2O2-induced oxidative stress ([3]; Schwann cells transfected with plasmid encoding PDNF): protected from H2O2-induced oxidative stress | increase in the abundance of pAkt (Ser473) [13]: five-fold | increase in the abundance of pAkt (Thr308) [13]: six-fold | physical interaction between PDNF and Akt [14]: coimmunoprecipitated PDNF and Akt | FOXO mRNA reduced in abundance [15]: ~4.0 fold
